One assay has as its system neonatal mice. Description: Fibrogenic response after subcutaneous administration to neonatal mice. In kind it is in vivo. The note with it: administered subcutaneously to neonatal mice. The method, then: CTGF is also known to induce transdifferentiaion of corneal epithelial cells into α […] muscle actin (αSMA)-expressing myofibroblasts. For example, cells are cultured for 24 hours in the presence and absence of CTGF peptide or CTGF modulator. Subsequently, the treated cells are stained for αSMA. CTGF activity also may be analyzed by measuring for a classic fibrogenic response as described in Leask et al., Mol. Pathol; 54: 180-183, 2001. For example, CTGF peptide or CTGF modulator are administered into the subcutaneous region of the neck of 3 day old mice for 7 consecutive days. Fourteen days after the last injection, the mice are sacrificed and the injected areas are stained for αSMA.
(§1) Adhesion is a well-accepted and reproducible measure of CTGF activity. […] Using 4 liters of CHO conditioned medium approximately 0.5 mg, 1 mg, and 0.1 mg, respectively, of 38 kDa, 16-20 kDa, and 10 kDa CTGF (CTGF1-4, CTGF3-4 and CTGF4, respectively) were produced.

A further assay concerns 3T3 cells. As to the kind of experiment: 3T3 cell adhesion to CTGF-coated non-tissue culture plastic. In kind it is cell-based. To be noted: HPLC-purified E. coli-derived protein. On the procedure: as §1
(§2) To confirm the functionality of residues 247-349 of SEQ ID NO: 1 (containing module 4 alone; denoted as CTGF4), this region of CTGF was produced as a maltose binding protein (MBP) fusion protein in E. coli as described in Ball et al., J Endocrinol; 176: R1-R7, 2003. […] HPLC-purified 10 kDa CTGF promoted 3T3 cell adhesion in a dose-dependent manner, with maximal binding at 8 ng/well. […] Also, the binding of all cell types to 10 kDa CTGF was reduced by EDTA treatment, though this effect was relatively modest in 3T3 cells. Thus, E coli-derived CTGF isoforms comprising essentially module 4 are intrinsically functional in the absence of the other constituent modules of CTGF.

In assay [1] the test system is pancreatic stellate cells (PSC). Description: PSC adhesion assay on coated wells. In kind it is cell-based, rat. The note with it: coated at 2 μg/ml. The text has this: Rat PSCs were isolated by a modification of the method described by Phillips et al., Gut; 52:677-82, 2003. Briefly, pancreatic tissue was digested in situ with 0.03% collagenase P (Roche, Indianapolis, Ind.) in HBSS by perfusion through the thoracic aorta. This protocol was approved by the Institutional Animal Care and Use Committee of Children's Research Institute, Columbus, Ohio. The tissue was pooled, minced with scissors, and then digested with 0.05% collagenase P, 0.02% protease XIV (Sigma, St. Louis), and DNase I (Roche, Indianapolis, Ind.) in HBSS. The resulting cell suspension was centrifuged in a 12% Optiprep gradient at 1400 g for 14 minutes. Stellate cells separated into a hazy band just above the interface of a the gradient and the aqueous buffer. This band was harvested, and the cells washed and resuspended in DMEM supplemented with 25 mM Hepes buffer, 10% FBS, and 100 U/ml penicillin in, 100 μg/ml streptomycin. The, cells were maintained at 37° C. in a humidified atmosphere of 5% CO2/95% air.
The ability of activated PSC to adhere to non-tissue culture plastic microtiter wells coated with recombinant CTGF1-4, CTGF3-4 or CTGF4 was investigated. The solid phase binding assay was carried out as described in Example 2. […] To assess the possibility that CTGF-mediated PSC adhesion involved cell surface integrins, the effect of divalent cations on cell adhesion was examined, as described in Example 2. […]
Because CTGF is a heparin-binding protein, this property was further investigated.
To identify the peptides that bind to PSCs, cell adhesion assays were carried out as described in Example 3.
To further investigate the peptide binding, P2 or P5 (10 μM) or vehicle buffer alone (no add) were added to PSC cell suspensions for 30 minutes at room temperature.

The next assay concerns the target integrin αvβ3 (Homo sapiens, UniProt P05106+P06756). Description: Solid phase ELISA of integrin αvβ3 binding. The note with it: coated at different concentrations. On the procedure:
Solid phase binding studies were also performed to investigate the binding of CTGF isoforms and αvβ3. Each CTGF isoform or vitronectin was individually coated onto microtiter wells at different concentrations, and the subsequent binding of αvβ3 was detected by ELISA using an anti-human αvβ3 monoclonal antibody. […] Saturation of binding occurred at 2 μg/ml for each CTGF isoform and 4 μg/ml for vitronectin.
In order to identify the αvβ3 binding site in CTGF4, eighteen synthetic peptides spanning the entire C-terminal region of CTGF4 (residues 246-349 of SEQ ID NO: 1) were synthesized and used as potential blocking agents in the solid phase binding studies as described in Example 3. […] Integrin αvβ3 was detected by successive incubation with anti-human αvβ3 monoclonal antibody diluted in blocking solution (1:1000), and followed by HRP-conjugated goat anti-mouse IgG (1:4000). The color reaction was developed using the horseradish peroxidase ELISA reagents (Chemicon), and the absorbance at 450 nm was measured using Bio Assay Reader (HTS700).
The ability of mutant CTGF4 to bind to integrin αvβ3 was assessed by solid phase ELISA which measured the ability of purified integrin αvβ3 to bind to the CTGF4 mutants.
A general note: ELISA stands for enzyme-linked immunosorbent assay.

The next assay deals with integrin α5β1 (Homo sapiens, UniProt P05556+P08648). Description: Solid phase ELISA of integrin α5β1 binding. To be noted: coated at 2 μg/ml; 1 μg/ml integrin. The method, then:
In a second approach, a solid phase binding assay was used in which CTGF1-4 or FN were individually coated onto microtiter wells that were subsequently incubated with purified integrin α5β1. The presence of immobilized integrin α5β1 was detected by ELISA using an anti-integrin α5β1 antibody similar to the methods described in Example 3 above. In addition, CTGF1-4 bound to integrin α5β1 in a dose-dependent manner, with maximal binding at 2 μg/ml CTGF. This level of CTGF1-4 (2 μg/ml) binding was the same as that elicited by 2 μg/ml FN, a well known ligand of integrin α5β1. In a similar experiment, 2 μg/ml of CTGF1-4;CTGF3-4 or CTGF4 were individually precoated onto microtiter wells. Using the solid-phase assay, integrin α5β1 bound to CTGF1-4, CTGF3-4 or CTGF4 See FIG. 5 (Panel B).
To directly analyze whether α5β1 integrin binds to CTGF4, microtiter wells coated with CTGF4 (2 μg/ml) or FN (4 μg/ml) were used in an ELISA assay to detect integrin binding, as described in Example 3. For these assays, 1 μg/ml integrin α5β1, alone or in the presence of 35 μM of P2peptide (CTGF[257-272]) and 35 μM of P5 peptide (CTGF [285-291]), were added to the precoated plates. […] The binding between CTGF4 and integrin α5 β1 was blocked by peptide P5 (CTGF [285-291]) or peptide P2 (CTGF[257-272]). […]

Another assay concerns PSCs. As to the kind of experiment: PSC chemotaxis (migration) assay in culture insert. In kind it is cell-based, rat. To be noted: substance in lower chamber. On the procedure:
To examine whether CTGF plays a role in PSC migration, a chemotaxis assay was carried out in which the migratory behavior of PSCs in the upper chamber of a culture insert was assessed following addition of CTGF to the lower chamber. […] PSC migration was also promoted by FN, PDGF or TGF-β1.

Assay [2] deals with vascular endothelial cells, intestinal epithelial, and hepatic stellate cells. Description: Adhesion of cell types to 10 kDa CTGF. In kind it is cell-based. The note with it: vascular endothelial, intestinal epithelial, hepatic stellate cells. The method, then:
as §2

Entries after “also recorded” stand apart in the source; their conditions may differ.

integrin α5β1, sequence (P08648 42-894 limits assumed): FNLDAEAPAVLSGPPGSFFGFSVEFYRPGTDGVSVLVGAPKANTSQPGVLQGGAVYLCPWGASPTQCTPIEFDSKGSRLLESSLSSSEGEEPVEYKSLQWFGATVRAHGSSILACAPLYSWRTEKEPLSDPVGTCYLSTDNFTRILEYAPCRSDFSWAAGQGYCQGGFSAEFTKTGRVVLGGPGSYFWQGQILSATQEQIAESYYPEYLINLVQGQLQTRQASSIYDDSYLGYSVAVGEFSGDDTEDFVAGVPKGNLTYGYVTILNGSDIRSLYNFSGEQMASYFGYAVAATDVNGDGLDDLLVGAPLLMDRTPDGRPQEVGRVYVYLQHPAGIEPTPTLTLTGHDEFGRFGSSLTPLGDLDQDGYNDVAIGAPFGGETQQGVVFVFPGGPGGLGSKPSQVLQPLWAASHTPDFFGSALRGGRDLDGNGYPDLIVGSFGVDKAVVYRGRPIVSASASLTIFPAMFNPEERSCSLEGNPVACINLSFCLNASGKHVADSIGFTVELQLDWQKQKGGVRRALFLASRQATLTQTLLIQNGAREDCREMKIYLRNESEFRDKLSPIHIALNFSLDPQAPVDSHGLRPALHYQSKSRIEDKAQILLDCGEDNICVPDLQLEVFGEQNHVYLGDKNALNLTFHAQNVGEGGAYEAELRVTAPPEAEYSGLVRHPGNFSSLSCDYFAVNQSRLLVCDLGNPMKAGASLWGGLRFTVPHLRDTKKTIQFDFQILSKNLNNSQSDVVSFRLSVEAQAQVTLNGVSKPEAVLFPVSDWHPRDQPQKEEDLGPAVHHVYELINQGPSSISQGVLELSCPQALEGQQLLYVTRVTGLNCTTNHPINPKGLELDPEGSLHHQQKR
integrin α5β1, sequence (P08648 895-1049 partner limits assumed): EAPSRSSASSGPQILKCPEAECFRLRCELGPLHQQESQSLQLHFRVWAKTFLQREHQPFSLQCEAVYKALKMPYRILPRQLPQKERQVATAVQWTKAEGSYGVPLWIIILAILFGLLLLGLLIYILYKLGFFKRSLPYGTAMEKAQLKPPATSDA
integrin α5β1, sequence (P05556 21-798): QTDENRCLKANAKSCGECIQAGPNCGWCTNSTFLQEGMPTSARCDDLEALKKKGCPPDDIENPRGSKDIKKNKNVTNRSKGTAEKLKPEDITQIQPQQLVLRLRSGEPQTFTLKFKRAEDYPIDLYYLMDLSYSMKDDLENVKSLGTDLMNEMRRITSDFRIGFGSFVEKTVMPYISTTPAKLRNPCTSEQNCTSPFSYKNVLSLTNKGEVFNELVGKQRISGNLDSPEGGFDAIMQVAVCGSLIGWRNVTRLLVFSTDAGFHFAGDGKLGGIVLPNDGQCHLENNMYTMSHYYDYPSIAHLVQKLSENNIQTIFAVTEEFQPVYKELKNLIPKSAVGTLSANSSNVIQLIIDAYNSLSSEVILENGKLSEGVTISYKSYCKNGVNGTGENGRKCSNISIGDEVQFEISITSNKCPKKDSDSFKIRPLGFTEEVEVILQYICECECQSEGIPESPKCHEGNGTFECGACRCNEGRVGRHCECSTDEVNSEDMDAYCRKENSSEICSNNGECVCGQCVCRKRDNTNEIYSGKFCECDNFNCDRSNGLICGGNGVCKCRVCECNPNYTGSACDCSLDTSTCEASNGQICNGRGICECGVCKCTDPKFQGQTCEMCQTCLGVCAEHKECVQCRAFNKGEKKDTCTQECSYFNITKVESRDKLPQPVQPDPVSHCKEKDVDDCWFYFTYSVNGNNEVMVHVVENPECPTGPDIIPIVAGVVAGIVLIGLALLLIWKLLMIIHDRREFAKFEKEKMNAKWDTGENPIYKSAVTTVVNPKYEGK
integrin αvβ3, sequence (P06756 31-889 limits assumed): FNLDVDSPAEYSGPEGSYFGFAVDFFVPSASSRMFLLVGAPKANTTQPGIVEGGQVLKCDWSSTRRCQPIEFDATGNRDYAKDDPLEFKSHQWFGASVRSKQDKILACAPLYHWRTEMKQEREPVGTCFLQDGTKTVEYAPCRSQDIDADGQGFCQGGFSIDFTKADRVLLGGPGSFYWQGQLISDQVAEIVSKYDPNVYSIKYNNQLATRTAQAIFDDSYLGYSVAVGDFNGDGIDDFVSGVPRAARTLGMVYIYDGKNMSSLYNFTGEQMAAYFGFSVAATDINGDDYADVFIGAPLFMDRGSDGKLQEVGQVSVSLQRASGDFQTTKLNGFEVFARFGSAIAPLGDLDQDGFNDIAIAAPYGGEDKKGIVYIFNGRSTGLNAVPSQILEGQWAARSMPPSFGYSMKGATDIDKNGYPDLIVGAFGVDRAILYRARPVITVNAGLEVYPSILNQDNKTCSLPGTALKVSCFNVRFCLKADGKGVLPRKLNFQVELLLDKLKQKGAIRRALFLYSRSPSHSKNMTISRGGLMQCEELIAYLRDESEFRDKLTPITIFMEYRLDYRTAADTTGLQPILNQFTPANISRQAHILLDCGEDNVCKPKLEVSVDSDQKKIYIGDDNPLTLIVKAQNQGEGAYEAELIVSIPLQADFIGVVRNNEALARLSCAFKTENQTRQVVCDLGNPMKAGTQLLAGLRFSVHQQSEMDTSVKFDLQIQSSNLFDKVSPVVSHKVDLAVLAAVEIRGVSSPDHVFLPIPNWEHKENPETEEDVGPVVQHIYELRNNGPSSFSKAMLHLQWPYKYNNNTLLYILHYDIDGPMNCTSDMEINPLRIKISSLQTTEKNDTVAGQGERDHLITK
integrin αvβ3, sequence (P06756 891-1048 partner limits assumed): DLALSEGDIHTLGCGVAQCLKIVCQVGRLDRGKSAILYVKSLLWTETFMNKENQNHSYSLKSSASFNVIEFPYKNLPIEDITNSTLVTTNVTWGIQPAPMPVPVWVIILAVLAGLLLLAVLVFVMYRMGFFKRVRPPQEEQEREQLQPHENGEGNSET
integrin αvβ3, sequence (P05106 27-788): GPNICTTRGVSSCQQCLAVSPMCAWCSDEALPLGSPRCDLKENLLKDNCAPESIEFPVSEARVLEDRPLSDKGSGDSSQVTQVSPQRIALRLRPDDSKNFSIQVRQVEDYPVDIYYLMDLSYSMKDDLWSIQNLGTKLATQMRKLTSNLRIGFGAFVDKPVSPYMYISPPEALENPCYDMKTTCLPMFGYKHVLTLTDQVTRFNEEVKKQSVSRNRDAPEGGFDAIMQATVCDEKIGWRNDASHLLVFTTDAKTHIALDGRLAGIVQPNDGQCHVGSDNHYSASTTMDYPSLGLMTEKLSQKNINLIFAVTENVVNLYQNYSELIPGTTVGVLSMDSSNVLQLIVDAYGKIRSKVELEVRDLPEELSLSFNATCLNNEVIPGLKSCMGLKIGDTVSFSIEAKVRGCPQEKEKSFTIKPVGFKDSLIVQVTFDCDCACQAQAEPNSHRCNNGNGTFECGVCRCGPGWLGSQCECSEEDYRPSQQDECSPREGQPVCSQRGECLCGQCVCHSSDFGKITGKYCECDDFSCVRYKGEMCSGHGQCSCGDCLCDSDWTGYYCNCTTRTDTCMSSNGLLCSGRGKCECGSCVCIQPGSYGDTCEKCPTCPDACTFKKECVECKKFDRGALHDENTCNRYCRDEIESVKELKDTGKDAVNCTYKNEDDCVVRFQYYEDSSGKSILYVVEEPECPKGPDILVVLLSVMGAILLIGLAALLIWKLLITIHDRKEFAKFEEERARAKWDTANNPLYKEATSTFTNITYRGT

B1: CTGF4: C-terminal CTGF fragment comprising essentially module 4 alone, residues 247-349 (protein)
chain: EENIKKGKKCIRTPKISKPIKFELSGCTSMKTYRAKFCGVCTDGRCCTPHRTTTLPVEFKCPDGEVMKKNMMFIKTCACHYNCPGDNDIFESLYYRKMYGDMA
Regarding B1, the fibrogenic response result in the assay with neonatal mice is listed as “most robust response”. Further, in the assay on 3T3 cells, the “3T3 cell adhesion, maximal binding at” value stood at 8 ng/well. For the same molecule, the “PSC adhesion supported by the coated substance” value in assay [1] is given as “significantly promoted”. Besides, the “binding to αvβ3” value with integrin αvβ3 is given as “strongest affinity”. In the assay with integrin α5β1, the “binding to integrin α5β1” value is listed as “bound; also recorded: bound strongly”. Further, the PSC migration entry in the assay with PSCs is on record as “induced PSC migration”. The “adhesion of several additional cell types” value in assay [2] is given as “promoted the dose-dependent adhesion”.

(Values after patent US20050153395A1, “Unique integrin binding site in connective tissue growth factor (CTGF)” (CHILDREN'S HOSPITAL INC., priority 2003, published 2005).)
